The record followed here is the supplement of paper PMC10567573.

± gives the standard deviation.

This data set can be described thus: protein stability index of a GFP-peptide fusion (GPS, HEK-293T) (PSI 1-6); higher = more stable. The settings on record: c terminus: a fixed tail appended.
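Also: 24-mer peptide tiles fused after GFP, lentivirally expressed, FACS-sorted into six equal bins by GFP/DsRed ratio, decoded by Illumina sequencing, PSI is the read-weighted mean bin number.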

Regarding TQTSEECNGILTEKMEEEEQTCDP [ZNF396], the protein stability index is, setting by setting: (treatment: DMSO) 5.5 ± 0.22; (treatment: MLN4924 1 uM, 8 h) 5.71 ± 0.17.

Take TRNVQSVSIIDTELKVKDSQPIDL [TRIP13]: the protein stability index by setting is: (treatment: DMSO) 4.32 ± 0.16; (treatment: MLN4924 1 uM, 8 h) 4.55 ± 0.19.

Sequence TSEDLRLQCDAVNLAFGRRCEELE [TEKT4] displayed a protein stability index (treatment: DMSO) of 4.51 ± 0.32 and a protein stability index (treatment: MLN4924 1 uM, 8 h) of 4.71 ± 0.29.

TSLSLAQVGAKGDTANEIGQVLHF [SERPINB5]: the protein stability index by setting is: (treatment: DMSO) 3.06 ± 0.28; (treatment: MLN4924 1 uM, 8 h) 3.18 ± 0.37.

For TSRRPSGTGTGPEDGRPSLGSPYG [PDLIM4], the protein stability index was found to be 4.67 ± 0.21 (treatment: DMSO) and 4.67 ± 0.2 (treatment: MLN4924 1 uM, 8 h).

On to TSSLAQPGAYYPYERTLGQYQYER [IRX6], for which the protein stability index worked out at 3.25 ± 0.38 (treatment: DMSO) and 3.22 ± 0.21 (treatment: MLN4924 1 uM, 8 h).

Sequence TSSSDDDEEVSGSSKTITAEIPDG [C18orf25] yielded a protein stability index (treatment: DMSO) of 5.59 ± 0.19 and a protein stability index (treatment: MLN4924 1 uM, 8 h) of 5.49 ± 0.23.

Turning to TSVGMSFVAGGISGTVAAVLTLPF [SLC25A39], the protein stability index turned out to be 2.95 ± 0.77 (treatment: DMSO) and 2.54 ± 0.25 (treatment: MLN4924 1 uM, 8 h).

On to TSYKVMVSNDSHTWVTVKNGSGDM [CPXM2], for which the protein stability index was determined as 2.8 ± 0.38 (treatment: DMSO) and 2.94 ± 0.27 (treatment: MLN4924 1 uM, 8 h).

On to TSYRLQGLKPNSLYYFRLAARSPQ [PTPRD], for which the protein stability index runs as follows: (treatment: DMSO) 2.33 ± 0.52; (treatment: MLN4924 1 uM, 8 h) 2.42 ± 0.39.

For the sequence TTFSTTSGYMEGYYTFHFLYFKDK [FBXO3], the protein stability index reads like this: (treatment: DMSO) 2.97 ± 0.74; (treatment: MLN4924 1 uM, 8 h) 2.41 ± 0.41.

For the sequence TVCDPARSCAIVEDDGLQSAFTAA [ADAMTS4], the protein stability index is 3.6 ± 0.85 (treatment: DMSO) and 4.16 ± 0.47 (treatment: MLN4924 1 uM, 8 h).

Consider TVGIYFGLVYRIHSVLQGFIPLFQ [TMEM40], for which the protein stability index amounted to 3.16 ± 0.58 (treatment: DMSO) and 3.16 ± 0.54 (treatment: MLN4924 1 uM, 8 h).

Take TWLTTPKSTWPRYSKPGLSMRLLE [TCF25]: the protein stability index (treatment: DMSO) was 2.41 ± 0.61 and the protein stability index (treatment: MLN4924 1 uM, 8 h) turned out to be 2.29 ± 0.31.

For the sequence TYRIENYTPDLPRADVDHAIEKAF [MMP1], the protein stability index reads like this: (treatment: DMSO) 3.4 ± 0.18; (treatment: MLN4924 1 uM, 8 h) 3.39 ± 0.31.

With TYVAKMSEPHYGHAGTVYGGVMYI [KLHL13], the protein stability index is, setting by setting: (treatment: DMSO) 3.32 ± 0.82; (treatment: MLN4924 1 uM, 8 h) 2.52 ± 0.45.

Take VAITVEVKQEEDIKPPPPLVLNSQ [RAD54B]: the protein stability index by setting is: (treatment: DMSO) 3 ± 0.26; (treatment: MLN4924 1 uM, 8 h) 2.98 ± 0.24.

VAMDTEFPGVVARPIGEFRSNADY [CNOT7] yielded a protein stability index (treatment: DMSO) of 3.73 ± 0.38 and a protein stability index (treatment: MLN4924 1 uM, 8 h) of 3.78 ± 0.37.

As to VAVNNIGRGPPSEPVLTQTSEQAP [PTPRD], the protein stability index is, setting by setting: (treatment: DMSO) 4.78 ± 0.2; (treatment: MLN4924 1 uM, 8 h) 5.02 ± 0.49.

Consider VCTKYNLRITSGVVVCQCGLSIPS [RPAIN], for which the protein stability index by setting is: (treatment: DMSO) 2.56 ± 0.5; (treatment: MLN4924 1 uM, 8 h) 2.45 ± 0.55.

VDDLKGSLKEDLTQHKFICEQCGK [SPRY1] displayed a protein stability index (treatment: DMSO) of 5.03 ± 0.3 and a protein stability index (treatment: MLN4924 1 uM, 8 h) of 4.88 ± 0.26.

For VEAVAYAPKKELINIKGISEAKAD [RAD51], the protein stability index reads like this: (treatment: DMSO) 4.49 ± 0.22; (treatment: MLN4924 1 uM, 8 h) 4.52 ± 0.41.

VELHYEEGSPRNLGTPTSSTPRPS [C2CD2L]: the protein stability index by setting is: (treatment: DMSO) 4.63 ± 0.48; (treatment: MLN4924 1 uM, 8 h) 4.48 ± 0.32.

Consider VENPSTASHSLSPSEHVQGKSPVN [ZNF649], for which the protein stability index reads like this: (treatment: DMSO) 5.26 ± 0.17; (treatment: MLN4924 1 uM, 8 h) 5.21 ± 0.29.

The sequence VERSKMIDRNLREDGEKAAREVKL [GNAI1] showed a protein stability index (treatment: DMSO) of 4.93 ± 0.38 and a protein stability index (treatment: MLN4924 1 uM, 8 h) of 5.09 ± 0.062.

Take VEVDAPKSQDLAKIMADIRAQYDE [KRT18]: the protein stability index (treatment: DMSO) worked out at 4.76 ± 0.12 and the protein stability index (treatment: MLN4924 1 uM, 8 h) was 4.71 ± 0.17.

For VGDILWEHLEILQKEDVKPYQVNG [ETS1], the protein stability index was found to be 3.1 ± 0.27 (treatment: DMSO) and 3.05 ± 0.33 (treatment: MLN4924 1 uM, 8 h).

On to VGEPEFHYIAGAHGNEVLGRELLL [CPXM2], for which the protein stability index reads like this: (treatment: DMSO) 2.88 ± 0.62; (treatment: MLN4924 1 uM, 8 h) 3.25 ± 0.2.

For the sequence VGERLQDTHSWKSELQREMEALAA [TEKT4], the protein stability index runs as follows: (treatment: DMSO) 3.9 ± 0.62; (treatment: MLN4924 1 uM, 8 h) 3.92 ± 0.56.

Regarding VGHARGLHAWQINWPARQRGTHAV [SPSB4], the protein stability index stood at 2.96 ± 0.43 (treatment: DMSO) and 2.87 ± 0.24 (treatment: MLN4924 1 uM, 8 h).

Consider VHQLSKKEASRHAIMRSPQMVSAI [CTNNB1], for which the protein stability index is 3.06 ± 0.26 (treatment: DMSO) and 3.06 ± 0.22 (treatment: MLN4924 1 uM, 8 h).

Consider VIDKETIDLLAFTSVAELELLGLE [SDE2], for which the protein stability index is, setting by setting: (treatment: DMSO) 2.27 ± 0.52; (treatment: MLN4924 1 uM, 8 h) 2.73 ± 0.48.

Consider VIDLFDEQGLSALHLAAQGRHAQT [RIPK4], for which the protein stability index (treatment: DMSO) was determined as 3.05 ± 0.35 and the protein stability index (treatment: MLN4924 1 uM, 8 h) was found to be 2.87 ± 0.14.

VLAARSPVFNAMFEHEMEESKKNR [SPOPL] came in with a protein stability index (treatment: DMSO) of 3.73 ± 0.2 and a protein stability index (treatment: MLN4924 1 uM, 8 h) of 4.27 ± 0.29.

For VLASFILDDGEIDEIRWKYHSDTT [IQUB], the protein stability index by setting is: (treatment: DMSO) 2.5 ± 0.23; (treatment: MLN4924 1 uM, 8 h) 2.18 ± 0.3.

Regarding VLEDNIIVSEVQFVESSGGGSSAV [BRF1], the protein stability index reads like this: (treatment: DMSO) 3.75 ± 0.21; (treatment: MLN4924 1 uM, 8 h) 3.89 ± 0.27.
